We go through two substances from PMC4175270.

For test [1], the target named is His6-MobC1-129 (plasmid RA3 (IncU), isolated from Aeromonas hydrophila). Kind of test: cross-linking; His-tagged MobC derivatives (0.1 mg ml^-1) with 0.001%, 0.005% and 0.01% glutaraldehyde; 20% SDS-PAGE, Western blot with anti-His tag antibodies. A general note: In western blotting, separated proteins are transferred to a membrane and probed.
The target is the same in test [2]. Briefly: SEC-MALS; gel filtration on Superdex 200 10/300 GL with UV, MALS and refractometer in line; 10 mM Tris pH 8.0, 150 mM NaCl; 0.5 ml of His6-MobC at 0.24 mg ml^-1 or His6-MobC1-129 at 0.04 mg ml^-1; no higher oligomers of MobC detected. A general note: In gel filtration, larger molecules generally elute earlier.
Test [3] deals with His6-MobC (WT MobC of plasmid RA3) (plasmid RA3 (IncU), isolated from Aeromonas hydrophila). The test is described as above.

Usually stoichiometry N stands for a count of units in the complex or per binding partner. For His6-MobC1-129 (domain or fragment), the stoichiometry N in test [1] and in test [2] was 2 throughout.

The substance “His6-MobC (WT MobC of plasmid RA3) (natural protein)” showed a stoichiometry N in test [3] of 2.
